# Measurements as given in PMC9385671 (Nature Communications, 2022).
# Values joined by “and” are separate entries in the source; they are usually repeats but may differ in a detail not shown here. Identical values can stand only once. Like-named read-outs stand apart in the source and are kept apart here.
# B1: wild type FtsZ-YFP-mts (domain or fragment, UniProt P0A9A6 1-366, looked up)
# chain: MFEPMELTNDAVIKVIGVGGGGGNAVEHMVRERIEGVEFFAVNTDAQALRKTAVGQTIQIGSGITKGLGAGANPEVGRNAADEDRDALRAALEGADMVFIAAGMGGGTGTGAAPVVAEVAKDLGILTVAVVTKPFNFEGKKRMAFAEQGITELSKHVDSLITIPNDKLLKVLGRGISLLDAFGAANDVLKGAVQGIAELITRPGLMNVDFADVRTVMSEMGYAMMGSGVASGEDRAEEAAEMAISSPLLEDIDLSGARGVLVNITAGFDLRLDEFETVGNTIRAFASDNATVVIGTSLDPDMNDELRVTVVATGIGMDKRPEITLVTNKQVQQPVMDRYQQHGMAPLTQEQKPVAKVVNDNAPQTA
# notes: FtsZ, prokaryotic cell-division protein (ftsZ gene product), truncated to residues 1-366; also called FtsZ chimera; FtsZ(1-366) fused with YFP and mts; source: E. coli BL21(DE3), pET-11b, purified (ammonium sulphate precipitation, anion exchange Q-Sepharose)
# B2: Wild type FtsZ-YFP-mts: truncated FtsZ(1-366) fused with yellow fluorescent protein (YFP) and a membrane-targeting sequence (mts) (protein)
# chain: B1 chain
# modifications: left off: YFP, end not stated, kept | mts (membrane-targeting sequence), end not stated, kept
# Columns and labels:
# FtsZ-YFP-mts [1] = target: T1, FtsZ-YFP-mts (Escherichia coli, UniProt P0A9A6); assay type: biochemical; design: made in house; host or cells: E. coli BL21(DE3) for the wild type; conditions: 5 μM protein, 1 mM GTP; for GTPase activity, Average: average of two repeats; for GTPase activity, single repeats: repeat 1 and repeat 2
# Experimental: Reactions were performed every 20 s for a total time of 120 s. After 30 min of incubation with BIOMOL® GREEN at room temperature, the absorbance of the samples at 620 nm was monitored by TECAN plate reader. The phosphate release concentrations were calculated based on a phosphate standard curve.
# [2] = Side-chain acidity: pKa by 1H NMR titration of free amino acids; assay type: physicochemical; conditions: for pKa: aqueous KH2PO4 solution titrated with sodium hydroxide
# Experimental: 10–20 mg of an amino acid, 50 mg of KH2PO4 was dissolved in 15 ml of water and titrated by sodium hydroxide solution to distinct pH values. 500 μl were taken to NMR tubes, 50 μl deuterium oxidewas added and ^1H NMR spectra were measured using W5 pulse tray water suppression at 500 MHz frequency. The chemical shifts were plotted against pH and analyzed using Henderson-Hasselbalch equation to deliver the pKa values. Experimental error ±0.15.
# MjTyrRS variants [3] = target: T2, MjTyrRS variants (Methanocaldococcus jannaschii, UniProt Q57834, D158A/F108N/H70G/L162C/L65E/Y32V); assay: Intact cell fluorescence assay of HYs incorporation into SUMO-sfGFP; assay type: cell-based; conditions: Synthetase C64RS
# T2 construct: expressed in transfected cells
# Experimental: (§1) The intact cell fluorescence assay was performed to approximately compare the Br2Y and Cl2Y incorporation efficiency of screened MjTyrRSs as well as to estimate their promiscuity against other Tyr analogues. Since the gene expression of SUMO-sfGFP was driven by T5 promoter on the one round positive selection plasmid, SUMO-sfGFP can be directly expressed in DH10b strain. […] Next day, an overnight culture was inoculated in a well at a ratio of 1:100 containing 300 μL TB medium supplemented with 50 μg/mL Kan,100 μg/mL Amp, 0.5 mM IPTG as well as 1 mM HYs while the corresponding control lacked the HYs. Cells were grown in 96 well plates (Ibidi) with orbital shaking (2 mm amplitude) for 24 h at 37 °C covered with a gas-permeable foil (Sigma Aldrich, Taufkirchen, Germany). […] After 24 h incubation, the optimal density and fluorescence was measured via top reading after the gas-permeable foil was removed. Each measurement was done in triplicate.
# MjTyrRS variants [4] = target: T3, MjTyrRS variants (Methanocaldococcus jannaschii, UniProt Q57834, D158A/F108Q/H70G/L162N/L65E/Q109C/Y32G); assay: as above; assay type: cell-based; conditions: Synthetase B48RS
# T3 construct: expressed in transfected cells
# Experimental: as §1
# MjTyrRS variants [5] = assay: as above; assay type: cell-based, Methanocaldococcus jannaschii
# Experimental: as §1
# [6] = target: the molecule itself; assay: dynamic light scattering; 12.5 µM FtsZ in SLB buffer (50 mM Tris-HCl pH 7.5, 150 mM KCl), 25 °C, 90° light scattering; polymerisation started by adding 4 mM GTP, followed for at least 70 min
# FtsZ-YFP-mts [7] = target: T1, FtsZ-YFP-mts; design: made in house; host or cells: E. coli BL21(DE3) for the wild type; conditions: 0.5 μM protein, 4 mM GTP
# Experimental: 1,2-dioleoyl-sn-glycero-3-phosphocholine (DOPC):1,2-dioleoyl-sn-glycero-3-phospho-(1’-rac-glycerol) (DOPG), 70:30 mol % mixture, was dissolved in chloroform in a quartz container, then dehumidified under a gas nitrogen stream. Chloroform traces were further removed through desiccation (1 h). Afterwards, the lipid film was hydrated to a final concentration of 4 mg/ml in supported lipid bilayers (SLB) buffer (50 mM Tris-HCl at pH 7.5, 150 mM KCl), and incubated at 37 °C for 30 min. The lipid film was then completely resuspended by vortexing rigorously to obtain multilamellar vesicles of different sizes. This mixture was then placed in a bath sonicator where shear forces help to reduce the size of the vesicles, giving rise to small unilamellar vesicles (SUVs). The SUV dispersion were stored at −20 °C as 20 µl aliquots.
# Glass coverslips (1.5#, 24 x 24 mm) were cleaned by piranha solution overnight, followed by extensive washing with milliQ H2O. Then glass coverslips were blown dry with compressed air. The reaction chamber was prepared by attaching a plastic ring on a cleaned glass coverslip using ultraviolet glue (Thorlabs No. 68). For supported lipid bilayer formation, the SUV dispersion was diluted in SLB buffer to 0.5 mg/ml, of which 75 µl was added to the reaction chamber. Adding CaCl2 to a final concentration of 3 mM induced fusion of the vesicles and the formation of a lipid bilayer on coversilde. After 20 min of incubation at 37 °C, the sample was rinsed with 2 ml pre-warmed SLB buffer.
# Polymerization was induced by adding 4 mM GTP.
# The UltimateFocus feature of DeltaVision Elite maintains the focus plane constant in time. […] Fluorescence imaging was performed using a standard FITC filter set. Images were acquired with a PCO sCMOS 5.5 camera (PCO, Germany) controlled by the softWoRx Software (GE Healthcare Life Sciences, Germany). For time-lapse experiments, images were acquired every 3 s with a 0.05 s exposure time and light illumination shuttered between acquisitions.
# FtsZ-YFP-mts [8] = conditions: FRAP
# Experimental: (§2) Fluorescence recovery after photobleaching data (FRAP) on the SLB were evaluated by choosing two separately circle areas (r = 4 µm). One circle was taken as a reference. Another one was photobleached by 20 iterations of 488 nm, laser under 100% laser power. Their fluorescence recovery in the green channel was monitored. Intensity traces were collected using Fiji, corrected for photobleaching and normalized with the pre-bleaching intensity and the reference intensity. The fluorescence recovery curves were then fitted with mono-exponential equation using Originpro (v_2017 & v_2019):1 Y=Ae^−kt+B, where Y represents fluorescence intensity at time t, A and B are parameters, and k represents the rate constant. The half-life, t1/2, was determined using the following equation:2 t1/2=ln2k^−1
# FtsZ-YFP-mts [9] = target: T1, FtsZ-YFP-mts; conditions: on SLB; n = 6
# Experimental: as §2
# FtsZ-YFP-mts [10] = target: T1, FtsZ-YFP-mts; conditions: total protein 0.5 µM
# Experimental: The final volume of a sample was approximately 250 μl. […] Polymerization was induced by adding 4 mM GTP.
# FtsZ-YFP-mts [11] = conditions: on SLB; mean ± SD
# Experimental: (§3) Images corresponded to an average of 5–10 frames from a time-series experiment. For the kymograph analysis, time-series acquisitions were filtered using a standard mean filter (2 pixel) and were drift corrected (multistackreg plugin). A MATLAB script allowed the user to define a ring by providing two coordinates. Every ring was automatically fitted to a circle with radius r. Then, three trajectories corresponding to three concentric circles having radii r, r + 1, and r − 1 pixels were determined. At this point, the script read the time-series data and calculated a kymograph for each time point and trajectory. To automatically calculate the slope, the kymograph was smoothed with a Savitzky-Golay filter of order 2 and enhance its contrast using a contrast-limited-adaptive-histogram-equalization (CLAHE) routine (MATLAB). Next, using Fourier analysis from previous study, the characteristic frequency for the patterns on the kymograph was found. Finally, the slope corresponded to the change in phase at this frequency. Quality criteria were properly chosen to reject low-quality regions over the kymograph. To synchronize time-lapse acquisitions, the initial frame (time 0) was defined when surface mean intensity was around 200 A.U.
# FtsZ-YFP-mts [12] = target: T1, FtsZ-YFP-mts; conditions: on SLB; slope of kymographs
# Experimental: as §3
# [13] = experimental error ±0.15, read-out: Ammonium pKa
# [14] = experimental error ±0.15, read-out: pKa of the phenolic side-chain
# T3 sequence (Q57834 whole entry Y32G/L65E/H70G/F108Q/Q109C/D158A/L162N): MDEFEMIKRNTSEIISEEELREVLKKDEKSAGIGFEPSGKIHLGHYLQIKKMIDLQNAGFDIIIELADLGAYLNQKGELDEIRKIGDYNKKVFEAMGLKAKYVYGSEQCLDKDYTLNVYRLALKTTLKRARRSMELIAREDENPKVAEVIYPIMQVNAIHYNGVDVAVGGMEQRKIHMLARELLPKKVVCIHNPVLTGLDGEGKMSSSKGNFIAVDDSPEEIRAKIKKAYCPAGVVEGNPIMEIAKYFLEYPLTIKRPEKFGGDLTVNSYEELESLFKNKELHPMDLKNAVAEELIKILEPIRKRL
# T2 sequence (Q57834 whole entry Y32V/L65E/H70G/F108N/D158A/L162C): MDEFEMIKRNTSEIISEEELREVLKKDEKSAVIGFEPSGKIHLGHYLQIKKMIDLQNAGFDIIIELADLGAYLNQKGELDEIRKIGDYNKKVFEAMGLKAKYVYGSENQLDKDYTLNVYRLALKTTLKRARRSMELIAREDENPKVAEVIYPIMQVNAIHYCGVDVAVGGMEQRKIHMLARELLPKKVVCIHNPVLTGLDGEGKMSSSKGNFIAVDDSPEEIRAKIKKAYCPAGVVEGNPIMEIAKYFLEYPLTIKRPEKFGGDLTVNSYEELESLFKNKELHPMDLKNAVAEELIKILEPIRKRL
molecule,measurement,setting,value
"N[C@@H](Cc1cc(I)c(O)c(I)c1)C(=O)O [I2Y, 3,5-diiodo-L-tyrosine]","GTPase activity, Average",FtsZ-YFP-mts [1],1.222 pi/min
same,"GTPase activity, single repeats",FtsZ-YFP-mts [1],1.132 pi/min and 1.3119 pi/min
same,pKa,[2]; [13],9.38
same,pKa,[2]; [14],6.5
same,pKa of the phenolic side-chain,[2]; experimental error ±0.15,6.45
same,Fluorescence Instensity,MjTyrRS variants [3],0.1172 a.u. and 0.1504 a.u. and 0.08392 a.u.
same,Fluorescence Instensity,MjTyrRS variants [4],0.00608 a.u. and 0.00634 a.u. and 0.00611 a.u.
same,Fluorescence Instensity,MjTyrRS variants [5]; Synthetase B4RS,0.01117 a.u. and 0.01123 a.u. and 0.01112 a.u.
same,Fluorescence Instensity,MjTyrRS variants [5]; Synthetase B12RS,0.07137 a.u. and 0.08741 a.u. and 0.05734 a.u.
same,Fluorescence Instensity,MjTyrRS variants [5]; Synthetase B37RS,0.1118 a.u. and 0.1372 a.u. and 0.08534 a.u.
same,Fluorescence Instensity,MjTyrRS variants [5]; Synthetase B39RS,0.1743 a.u. and 0.1958 a.u. and 0.1504 a.u.
same,Fluorescence Instensity,MjTyrRS variants [5]; Synthetase C45RS,0.07608 a.u. and 0.1006 a.u. and 0.05086 a.u.
"N[C@@H](Cc1ccc(O)c(I)c1)C(=O)O [IY, 3-iodo-L-tyrosine]","GTPase activity, single repeats",FtsZ-YFP-mts [1],1.6686 pi/min and 1.8578 pi/min
same,pKa,[2]; [13],9.37
same,pKa,[2]; [14],8.3
same,Fluorescence Instensity,MjTyrRS variants [3],0.4349 a.u. and 0.5128 a.u. and 0.3571 a.u.
same,Fluorescence Instensity,MjTyrRS variants [4],0.5153 a.u. and 0.5773 a.u. and 0.4545 a.u.
same,Fluorescence Instensity,MjTyrRS variants [5]; Synthetase B12RS,0.5049 a.u. and 0.5603 a.u. and 0.4548 a.u.
same,Fluorescence Instensity,MjTyrRS variants [5]; Synthetase B37RS,0.268 a.u. and 0.305 a.u. and 0.2304 a.u.
same,Fluorescence Instensity,MjTyrRS variants [5]; Synthetase B39RS,0.1745 a.u. and 0.1928 a.u. and 0.1452 a.u.
same,Fluorescence Instensity,MjTyrRS variants [5]; Synthetase C5RS,0.6274 a.u. and 0.698 a.u. and 0.5495 a.u.
same,Fluorescence Instensity,MjTyrRS variants [5]; Synthetase C45RS,0.7321 a.u. and 0.8284 a.u. and 0.6034 a.u.
same,Fluorescence Instensity,MjTyrRS variants [5]; Synthetase C61RS,0.5143 a.u. and 0.5653 a.u. and 0.452 a.u.
B1,binding result,[6],binds
B2,"GTPase activity, Average",FtsZ-YFP-mts [1],7.3492 pi/min
same,"GTPase activity, single repeats",FtsZ-YFP-mts [1],7.7984 pi/min and 6.9 pi/min
same,Phosphate at Time 0.3 min,"FtsZ-YFP-mts [1]; time 0.3 min, repeats 1 and 2",6.378 µM and 10.2373 µM
same,Phosphate at Time 0.7 min,"FtsZ-YFP-mts [1]; time 0.7 min, repeats 1 and 2",8.111 µM
same,Phosphate at Time 1 min,"FtsZ-YFP-mts [1]; time 1 min, repeats 1 and 2",13.7966 µM and 9.644 µM
same,Phosphate at Time 2 min,"FtsZ-YFP-mts [1]; time 2 min, repeats 1 and 2",19.8222 µM and 22.4068 µM
same,Ring pattern formation on supported lipid bilayer,FtsZ-YFP-mts [7]; TIRFM,homogeneous treadmilling ring pattern
same,Average ring diameter,"FtsZ-YFP-mts [7]; on SLB, mean ± SD",0.80 ± 0.18 μm
same,"half time, ave","FtsZ-YFP-mts [8]; average of the three measurements (stdev in the row below), Fig. 2h",4.974 s
same,half time,"FtsZ-YFP-mts [8]; individual measurements, source data of Fig. 2h",4.866 s and 5.251 s and 4.806 s
same,FRAP half-time,FtsZ-YFP-mts [9],4.97 ± 0.24 s
same,"Ring density, Average",FtsZ-YFP-mts [10]; average of three repeats,144248 µm−2
same,"Ring density, single repeats","FtsZ-YFP-mts [10]; repeats 1-3, listed as 0 Cl2Y",133565 µm−2 and 142057 µm−2 and 157123 µm−2
same,Ring density,FtsZ-YFP-mts [10]; stated percentage of Cl2Y modified variant,1.44 (±0.12) × 10^5 µm^−2
same,Treadmilling velocity,FtsZ-YFP-mts [11],21.63 ± 5.11 nm/s
same,Mean rotation (treadmilling) velocity,FtsZ-YFP-mts [12],21.63 ± 5.11 nm/s
